B1: LINE1-full (parent)
chain: UACGUAGGUGGUUUUCCCCUGAUAGUGCUAAGGGGGCCUGGAAGUUUGGACUGGGCAGAGCUCAACACAGCGUGGCAAAGUGGCUGUGGCUAGACUGCCUCUCUGGAUUCCUCGUCACUCAGCAGGGCAUCUCUGAGAGAAAUGCC

Variants of: B1
Assay: self-cleavage, relative activity (ratio to wild type); higher = more cleavage; in vitro, sequencing; the parent is a self-cleaving ribozyme

| Variant | self-cleavage |
| --- | --- |
| UACGUAGGUGGUUUUCCUCUGAUAGUGCUAAGGGGGCCUGGAAGUUUGGACUGGGCAGAGCUCAACACAGCGUGGCAAAGUGGCAGUGGCUAGACUGCCUCUCUGGAUUCCUCGUCACUCAGCAGGGCAUCUCUGAGAGAAAUGCC [C18U U85A] | 0.13 |
| UACGUAGGUGGUUUUCCUCUGAUAGUGCUAAGGGGGCCUGGAAGUUUGGACUGGGCAGAGCUCAACACAGCGUGGCAAAGUGGCGGUGGCUAGACUGCCUCUCUGGAUUCCUCGUCACUCAGCAGGGCAUCUCUGAGAGAAAUGCC [C18U U85G] | 0.23 |
| UACGUAGGUGGUUUUCCCAUGAUAGUGCUAAGGGGGCCUGGAAGUUUGGACUGGGCAGAGCUCAACACAGCGUGGCAGAGUGGCUGUGGCUAGACUGCCUCUCUGGAUUCCUCGUCACUCAGCAGGGCAUCUCUGAGAGAAAUGCC [C19A A78G] | 1.53 |
| UACGUAGGUGGUUUUCCUCUGAUAGUGCUAAGGGGGCCUGGAAGUUUGGACUGGGCAGAGCUCAACACAGCGUGGCAAAGUGGCUGUGGCUAGACAGCCUCUCUGGAUUCCUCGUCACUCAGCAGGGCAUCUCUGAGAGAAAUGCC [C18U U96A] | 0.08 |
| UACGUAGGUGGUUUUCCUCUGAUAGUGCUAAGGGGGCCUGGAAGUUUGGACUGGGCAGAGCUCAACACAGCGUGGCAAAGUGGCUGUGGCUAGACUGCCUCUCUGGAUUCCUCGUCACUCAGCAGGGCGUCUCUGAGAGAAAUGCC [C18U A129G] | 0.81 |
| UACGUAGGUGGUUUUCCUCUGAUAGUGCUAAGGGGGCCUGGAAGUUUGGACUGGGUAGAGCUCAACACAGCGUGGCAAAGUGGCUGUGGCUAGACUGCCUCUCUGGAUUCCUCGUCACUCAGCAGGGCAUCUCUGAGAGAAAUGCC [C18U C56U] | 0.24 |
| UACGUAGGUGGUUUUCCUCUGAUAGUGCUAAGGGGGCCUGGAAGUUUGGACUGGGCAGAGCUCAACACAGCGUGGCAAAGUGGCUGUGGCUAGACUGCCUCUCUGGACUCCUCGUCACUCAGCAGGGCAUCUCUGAGAGAAAUGCC [C18U U108C] | 0 |
| UACGUAGGUGGUUUUCCUCUGAUAGUGCUAAGGGGGCCUGGAAGUUUGGACUGGGCAGAGCUCAACACAGCGUGGCAAAGUGGCUGUGGCUAGACUGCCUCUCUGGAUUCCUCGUCACUCAGCAGGGCAUCUCUGGGAGAAAUGCC [C18U A136G] | 1.33 |
| UACGUAGGUGGUUUUCCUCUGAUAGUGCUAAGGGGGCCUGGAAGUUUGGACUGGGCAGAGCUCAACACAGCGUGGCAAGGUGGCUGUGGCUAGACUGCCUCUCUGGAUUCCUCGUCACUCAGCAGGGCAUCUCUGAGAGAAAUGCC [C18U A79G] | 1 |
| UACGUAGGUGGUUUUCCUCUGAUAGUGCUAAGGGGGCCUGGAAGUUUGGACUGGGCAGAGCUCAACACAGCGUGGCAAAGUGGCUGUGGCUAGGCUGCCUCUCUGGAUUCCUCGUCACUCAGCAGGGCAUCUCUGAGAGAAAUGCC [C18U A94G] | 0.32 |
| UACGUAGGUGGUUUUCCCAUGAUAGUGCUAAGGGGGCCUGGGAGUUUGGACUGGGCAGAGCUCAACACAGCGUGGCAAAGUGGCUGUGGCUAGACUGCCUCUCUGGAUUCCUCGUCACUCAGCAGGGCAUCUCUGAGAGAAAUGCC [C19A A42G] | 0.33 |
| UACGUAGGUGGUUUUCCUCUGAUAGUGCUAAGGGGGCCUGGAAGUUUGGACUGGGCAGAACUCAACACAGCGUGGCAAAGUGGCUGUGGCUAGACUGCCUCUCUGGAUUCCUCGUCACUCAGCAGGGCAUCUCUGAGAGAAAUGCC [C18U G60A] | 0.01 |
| UACGUAGGUGGUUUUCCUCUGAUAGUGCUAAGGGGGCCUGGAAGUUUGGACUGGGCAGAGCUCAACACAGCGUGGCAAAGUGGCUGUGGCUAGACUGCCCCUCUGGAUUCCUCGUCACUCAGCAGGGCAUCUCUGAGAGAAAUGCC [C18U U100C] | 1.53 |
| UACGUAGGUGGUUUUCCCAUGAUAGUGCUAAGGGGGCCUGGAAGUUUGGACUGGGCAGAGCUCAACACAGCGUGGCAAAGUGGCUGUGGCUAGACUGCCUCUCUGGAUUCCUCGUCACUCAGCAGGGCAUCUCUGAGAGAAAUGCC [C19A] | 0.97 |
| UACGUAGGUGGUUUUCCUCUGAUAGUGCUAAGGGGGCCUGGAAGCUUGGACUGGGCAGAGCUCAACACAGCGUGGCAAAGUGGCUGUGGCUAGACUGCCUCUCUGGAUUCCUCGUCACUCAGCAGGGCAUCUCUGAGAGAAAUGCC [C18U U45C] | 0.57 |
| UACGUAGGUGGUUUUCCCAUGAUAGUGCUAAGGGGGCCUGGAAGUUUGGACUGGGCAGAGCUCAACACAGCGUGGCAAAGUGGCUGUGGCUAGACUGCCUCUCUGGAUUCCUCGUCACUCAGCAGGGCAUCUCUGAGAGAAGUGCC [C19A A142G] | 1.3 |
| UACGUAGGUGGUUUUCCUCUGAUAGUGCUAAGGGGGCCUGGAAGUUUGGACUGGGCAGAGCUCAACACCGCGUGGCAAAGUGGCUGUGGCUAGACUGCCUCUCUGGAUUCCUCGUCACUCAGCAGGGCAUCUCUGAGAGAAAUGCC [C18U A69C] | 0.07 |
| UACGUAGGUGGUUUUCCUCUGAUAGCGCUAAGGGGGCCUGGAAGUUUGGACUGGGCAGAGCUCAACACAGCGUGGCAAAGUGGCUGUGGCUAGACUGCCUCUCUGGAUUCCUCGUCACUCAGCAGGGCAUCUCUGAGAGAAAUGCC [C18U U26C] | 2.16 |
| UACGUAGGUGGUUUUCCCAUGAUAGUGCUAAGGGGGCCUGGAAGUUUGGACUGGGCAGAGCUCAACACAGCAUGGCAAAGUGGCUGUGGCUAGACUGCCUCUCUGGAUUCCUCGUCACUCAGCAGGGCAUCUCUGAGAGAAAUGCC [C19A G72A] | 1.07 |
| UACGUAGGUGGUUUUCCUCUGAUAGUGCUAAGGGGGCCUGGAAGUUUGGACUGGGCAGAGCUCAACACAGCGUGGCAAAGUGGCUGUGGCUAGACUGCCUCUCUGGAUUCCUCGUCACUCAGCAGGGCAUCUCUGAGAGAAAUACC [C18U G144A] | 0.75 |

| Variant | self-cleavage |
| --- | --- |
| UACGUAGGUGGUUUUCCCAUGAUAGUGCUAAGGGGGCCUGGAAGUUUGGACUGGGCAGGGCUCAACACAGCGUGGCAAAGUGGCUGUGGCUAGACUGCCUCUCUGGAUUCCUCGUCACUCAGCAGGGCAUCUCUGAGAGAAAUGCC [C19A A59G] | 0.13 |
| UACGUAGGUGGUUUUCCUCUGAUAGUGCUAAGGGGGCCUGGAAGUUUGGACUGGGCAGAGCUCAACACAGCGUGGCAAAGUGGCUGUGGCUAGACUGCCUCUCUGGAUUCCUCGUCACUCAGCAGGGCAUCUCGGAGAGAAAUGCC [C18U U134G] | 1.95 |
| UACGUAGGUGGUUUUCCUCUGAUAGUGCUAAGGGGGCCUGGAAGUUUGGACUGGGCAGAGCUCAACACAGAGUGGCAAAGUGGCUGUGGCUAGACUGCCUCUCUGGAUUCCUCGUCACUCAGCAGGGCAUCUCUGAGAGAAAUGCC [C18U C71A] | 0.09 |
| UACGUAGGUGGUUUUCCCAUGAUAGUGCUAAGGGGGCCUGGAAGUUUGGACUGGGCAGAGCUCAACACAGCGUGGCGAAGUGGCUGUGGCUAGACUGCCUCUCUGGAUUCCUCGUCACUCAGCAGGGCAUCUCUGAGAGAAAUGCC [C19A A77G] | 2.71 |
| UACGUAGGUGGUUUUCCUCUGAUAGUGCUAAGGGGGCCUGGAAGUUUGGACUGGGCAGAGCUCAACACAGCGUGGCAGAGUGGCUGUGGCUAGACUGCCUCUCUGGAUUCCUCGUCACUCAGCAGGGCAUCUCUGAGAGAAAUGCC [C18U A78G] | 0.88 |
| UACGUAGGUGGUUUUCCUCUGAUAGUGCUAAGGGGGCCUGGAAGUUUGGACUGGGCAGAGCUCAACACAGCGUGGCAUAGUGGCUGUGGCUAGACUGCCUCUCUGGAUUCCUCGUCACUCAGCAGGGCAUCUCUGAGAGAAAUGCC [C18U A78U] | 0.9 |
| UACGUAGGUGGUUUUCCUCUGAUAGUGCUAAGGGGGCCUGGAAGUUUGGACUGGGCAGAGCUCAGCACAGCGUGGCAAAGUGGCUGUGGCUAGACUGCCUCUCUGGAUUCCUCGUCACUCAGCAGGGCAUCUCUGAGAGAAAUGCC [C18U A65G] | 0.07 |
| UACGUAGGUGGUUUUCCCAUGAUAGUGCUAAGGGGGCCUGGAAGUUUGGACUGGGCAGAGCUCAACACAGCGUGGCAAAGUGGCUGUGGCUAGACUGCCUCUCUGGAUUCCUCGUCACUCAGCAGGGCAUCUCUGAGGGAAAUGCC [C19A A138G] | 0.72 |
| UACGUAGGUGGUUUUCCCAUGAUAGUGCUAAGGGGGCCUGGAAGUUUGGACUGGGCAGAGCUCAACACAGCGUGGCAAAGUGGCUGUGGCUAGACUGCCUCUCUGGAUUCCUCGUCACUCAGCAGGGCAUCUCUGAGCGAAAUGCC [C19A A138C] | 1.07 |
| UACGUAGGUGGUUUUCCCAUGAUAGUGCUAAGGGGGCCUGGAAGUUUGGGCUGGGCAGAGCUCAACACAGCGUGGCAAAGUGGCUGUGGCUAGACUGCCUCUCUGGAUUCCUCGUCACUCAGCAGGGCAUCUCUGAGAGAAAUGCC [C19A A50G] | 1.48 |
| UACGUAGGUGGUUUUCCUCUGAUAAUGCUAAGGGGGCCUGGAAGUUUGGACUGGGCAGAGCUCAACACAGCGUGGCAAAGUGGCUGUGGCUAGACUGCCUCUCUGGAUUCCUCGUCACUCAGCAGGGCAUCUCUGAGAGAAAUGCC [C18U G25A] | 0.39 |
| UACGUAGGUGGUUUUCCCAUGAUAGUGCUAAAGGGGCCUGGAAGUUUGGACUGGGCAGAGCUCAACACAGCGUGGCAAAGUGGCUGUGGCUAGACUGCCUCUCUGGAUUCCUCGUCACUCAGCAGGGCAUCUCUGAGAGAAAUGCC [C19A G32A] | 0.91 |
| UACGUAGGUGGUUUUCCUCUGAUAGUGCUAAGGGGGCCUGGAAGUUUGGACUGGGCAGAGCUCAACACAGCGUGGCGAAGUGGCUGUGGCUAGACUGCCUCUCUGGAUUCCUCGUCACUCAGCAGGGCAUCUCUGAGAGAAAUGCC [C18U A77G] | 1.91 |
| UACGUAGGUGGUUUUCCUCUGAUAGUGCUAAGGGGGCCUGGAAGUUUGGACUGGGCAGAGCUCAACACAGCGUGGCUAAGUGGCUGUGGCUAGACUGCCUCUCUGGAUUCCUCGUCACUCAGCAGGGCAUCUCUGAGAGAAAUGCC [C18U A77U] | 1.11 |
| UACGUAGGUGGUUUUCCUCUGAUAGUGCUAAGGGGGCCUGGAAGUUUGGACUGGGCAGAGCUCAACACAGCGUGGCAAAGUGGCUGUGGCUAGACUGCCUCCCUGGAUUCCUCGUCACUCAGCAGGGCAUCUCUGAGAGAAAUGCC [C18U U102C] | 1.61 |
| UACGUAGGUGGUUUUCCUCUGAUAGUGCUAAGGGGGCCUGGAAGUUUGGACUGGGCAGAGCUCAACACAGCGUGGCAAAGUGGCUGUGGCUAGACUGCCUCGCUGGAUUCCUCGUCACUCAGCAGGGCAUCUCUGAGAGAAAUGCC [C18U U102G] | 0.62 |
| UACGUAGGUGGUUUUCCCAUGAUAGUGCUAAGGGGGCCUGGAAGUUUGGACUGGGCAGAGCUCAACACAGCGUGGCAAAGUGGCUGUGGCUAGACUGCCUCUCUGGAUUCCUCGUCACUCAGCGGGGCAUCUCUGAGAGAAAUGCC [C19A A124G] | 0.58 |
| UACGUAGGUGGUUUUCCCAUGAUAGUGCUAAGGGGGCCUGGAAGUUUGGACUGGGCAGAGCUCAACACAGCGUGGCAAAGUGGCUGUGGCUAGACUGCCUCUCUGGAUUCCUCGUCACUCAGCAGGGUAUCUCUGAGAGAAAUGCC [C19A C128U] | 1.08 |
| UACGUAGGUGGUUUUCCUCUGAUAGUGCUAAGGGGGCCUGGAAGUUUGGACUGGGCAGAGCUCAACACAGCGUGGCAAAGUGGCUGUGGCUAGACUGCCUCUCUGGAUUCCUCGUCACUCAGCAGUGCAUCUCUGAGAGAAAUGCC [C18U G126U] | 1.62 |

From the RNAGym collection of RNA variant scans (doi:10.7554/elife.90254)
